One assay concerns CD11b+Gr1+ cells. In words: G-CSF-induced mobilization of CD11b+Gr1+ cells. The assay is classed as in vivo, mouse. The following applies: sub-maximal dose 2 μg, within six hours. On the procedure:
To determine the role of Bv8 in G-CSF-induced mobilization of CD11b+Gr1+ cells, Balb/c nude mice received two doses of anti-Bv8 antibodies (5+5 mg/kg), 12 hours apart, followed by mouse G-CSF (R&D Systems; 2 μg/mouse) fours hours after the second dose of Mab. As a positive control, we used a rat anti-mouse G-CSF Mab (Mab414, R&D Systems; 10 μg/mouse) given at the same interval as anti-Bv8, followed by mouse G-CSF. After six hours, mice were bled and the frequency of CD11b+Gr1+ cells was determined as described. To determine the role of G-CSF in regulating Bv8 expression in the absence of tumor, Balb/c nude mice were given daily i.p. injections of control rat IgG (Genentech) or rat anti-G-CSF Mab (Mab414, R&D Systems, 10 μg/mouse) for eight consecutive days. Animals were euthanized and total proteins were extracted from BMMNCs. Bv8 levels were measured by ELISA, as described. To assess the significance of G-CSF in regulating Bv8 expression in tumors, Balb/c nude mice were pretreated with 10 μg of rat anti-G-CSF Mab or rat IgG as above described, followed after 12 hours by implantation with HM7 cells (5×10^6 per mouse). Controls were implanted with empty Matrigel™. Animals then received daily administration of antibodies for two days. Forty-eight hours after Matrigel™ or tumor implantation, mice were euthanized and Bv8 levels in BMMNCs were measured as described above.

Another assay concerns Bv8 protein levels. In words: In vivo G-CSF administration, Bv8 protein levels (ELISA). Details: species or system mouse. As to the method: Eight weeks old Balb/c mice were subcutaneously injected with 10 μg recombinant human G-CSF (Neupogen, Amgen) daily for eight consecutive days. Control animals were given PBS. At the end of study, BM, whole blood and spleen samples were taken for analysis. One group of animals was maintained for two days after G-CSF discontinuation. Neutrophil count was done using an automated, high-resolution, flow cytometry-based hematology analyzer (CellDyn 3000). Serum and BM Bv8 levels were measured by ELISA.
MaxiSorp® 96-well microwell plates (Nalge Nunc International, Rochester, N.Y.) were coated with […] 3F1 antibody (a mouse anti-human BV8 antibody, which also binds to mouse Bv8 in 50 mM carbonate buffer, pH 9.6, at 4° C. overnight. Plates were washed with PBS containing 0.05% polysorbate 20 and blocked with 0.5% bovine serum albumin, 10 ppm Proclin 300™ (Supelco, Bellefonte, Pa.) in PBS at room temperature for 1 h. After plates were washed, mouse BV8 standards (0.039-2.50 ng/ml in 2-fold serial dilution, Genentech) and samples (minimum 1:10 dilution) in PBS containing 0.5% bovine serum albumin, 0.05% polysorbate 20, 10 ppm Proclin 300® (Supelco, Bellefonte, Pa.) and 0.35N NaCl (sample buffer) were added to the plates. The plates were incubated for 2 h at room temperature. Unbound antibody was removed by a wash step. Antibody bound to the plates was detected by adding biotinylated 4E10 antibody (a hamster anti-mouse BV8 antibody, Genentech) followed by streptavidin-HRP (GE Healthcare, Buckinghamshire, United Kingdom) and 3,3′,5,5′-tetramethyl benzidine (Kirkegaard & Perry Laboratories, Gaithersburg, Md.) as the substrate. The reaction was stopped by adding 1 M phosphoric acid. Absorbance was read at 450 nm on a Titertek™ stacker reader (ICN, Costa Mesa, Calif.). The titration curves of the standards were fit using a four-parameter regression curve-fitting program (Genentech). Data points which fell in the range of the standard curve were used for calculating the mouse BV8 concentrations in samples.
On the technique in general: An ELISA detects its analyte on a solid surface through an enzyme-linked reagent.

Assay [1] deals with Bv8 and PKR2/EG-VEGFR2 expression. In words: White blood cells from G-CSF treated donors. The assay is classed as in vivo, human. On the procedure: MaxiSorp® 96-well microwell plates (Nalge Nunc International, Rochester, N.Y.) were coated with 1.0 μg/ml 3F1 mouse monoclonal antibody (Genentech Inc.) in 50 mM carbonate buffer, pH 9.6, at 4° C. overnight. Plates were washed with PBS containing 0.05% polysorbate 20 and blocked with 0.5% bovine serum albumin, 15 p.p.m. (parts per million) Proclin 300 (Supelco, Bellefonte, Pa.) in PBS at room temperature for 1 h. After plates were washed, human Bv8 standards (0.020-2.5 ng/ml in 2-fold serial dilution, PeproTech, Rocky Hill, N.J.) and samples (minimum 1:10 dilution) in PBS containing 0.5% bovine serum albumin, 0.05% polysorbate 20, 15 p.p.m. Proclin 300 (Supelco, Bellefonte, Pa.) and 0.35N NaCl (sample buffer) were serially diluted and were added to each well. The plates were incubated for 2 hr at room temperature followed by a washing step. The bound Bv8 was detected by adding the secondary antibody, a biotinylated hamster anti-Bv8 antibody clone 3B8 (Genentech Inc.) followed by adding streptavidin-HRP (GE Healthcare, Buckinghamshire, United Kingdom) and 3,3′,5,5′-tetramethyl benzidine (Kirkegaard & Perry Laboratories, Gaithersburg, Md.) as the substrate. The reaction was stopped by adding 1 M phosphoric acid. Absorbance was read at 450 nm on a ThermoMax microplate reader (Molecular Devices, Menlo Park, Calif.). The titration curves of the standards were calculated using a four-parameter regression curve-fitting program (Genentech Inc). Human Bv8 concentration was calculated by extrapolating the optical density values of samples to the data range in the standard curve. The Bv8 ELISA was capable of measuring up to 10% lysis buffer and had the sensitivity to detect Bv8 as low as 0.20 ng/ml in tissue lysates. […] This ELISA could also detect mouse Bv8 but with less than 7% sensitivity.
Peripheral white blood cells were obtained from normal donors after 4-5 days of G-CSF treatment by apheresis collections (Cellular Therapy and Cell Processing Facilities, Fred Hutchinson Cancer Research Center, Seattle, Wash.). […]

For the next assay, the system named is Bv8 expression. The following applies: previously reported; cited from earlier work.
Another assay deals with human neutrophils. In words: Chemotaxis of peripheral blood neutrophils. The assay is classed as cell-based. As to the method:
10^6 cells were washed with HBSS containing 0.2% BSA before putting into transwell insert with 5 μm pore size (Corning Incorporated, Lowell, Mass.). In the lower chamber, media alone or media with various cytokines at various concentrations (maximum at 200 ng/ml) was added. After 3 hr at 37° C., cells in the lower chamber were transferred, mixed with 9 ml ZPAK solution and counted on Z2 Coulter Particle Count and Size Analyzer (Beckman Coulter, Fullerton, Calif.).

B1: G-CSF: recombinant granulocyte-CSF: mouse or human (R&D Systems) or human Neupogen (Amgen) (protein, chains of the INN, looked up)
chain: MTPLGPASSLPQSFLLKCLEQVRKIQGDGAALQEKLCATYKLCHPEELVLLGHSLGIPWAPLSSCPSQALQLAGCLSQLHSGLFLYQGLLQALEGISPELGPTLDTLQLDVADFATTIWQQMEELGMAPALQPTQGAMPAFASAFQRRAGGVLVASHLQSFLEVSYRVLRHLAQP
With B1, in the assay with CD11b+Gr1+ cells, the “mobilization of CD11b+Gr1+ to the peripheral blood” value was “significant mobilization”. Further, the “increase of Bv8 levels in the BM above background” value in the assay on Bv8 protein levels (24 hours after G-CSF administration) is ~30 fold. Moreover, the “serum Bv8 levels” value with Bv8 protein levels (after G-CSF administration) was “dramatically increased”. The “Bv8 levels in kidney, brain and liver” value in the assay with Bv8 protein levels (data not shown) is recorded as “no effect”. In the assay on Bv8 protein levels (mouse, in vivo), the “time for BM and serum Bv8 to return to near baseline after discontinuing G-CSF” value was ≤ 48 h. In addition, the “increase in Bv8 protein level in G-CSF mobilized mononuclear cells” value in assay [1] (ELISA, vs untreated donors) was 10 fold. For the same molecule, the “increase in Bv8 expression in G-CSF mobilized mononuclear cells” value in assay [1] (donors treated 4-5 days, vs untreated donors) was “About 4.5 fold”. For the same molecule, the “induction of PKR2/EG-VEGFR2 expression in mononuclear cells” value in assay [1] (vs un-treated control samples) is listed as ~2 fold. In the assay with Bv8 expression, the “up-regulation of Bv8 expression in mouse bone marrow cells and peripheral neutrophils” value is listed as > 30 fold. Moreover, the “concentration required to stimulate neutrophil migration” value in the assay on human neutrophils is 20 nM.

The values above are taken from patent US9284369B2, “Inhibition of angiogenesis” (Genentech, Inc., priority 2007, dated 2016).
